Source: US20220306690A1 (CURATORS OF THE UNIVERSITY OF MISSOURI, published 2022)

What was measured:
[1] = biological target: T1, HIV-1 capsid protein (CA) hexamer (HIV-1, UniProt O12157 131-361, fluorescently labeled with Alexa Fluor 647 analog NT647 (site of labeling not stated)); experiment: MicroScale Thermophoresis; Kd of Pep-2-cyclic (32 nM) against Kd of small molecule PF74 ([…] nM) on CA-hexamers
T1 construct: also called CA-hexamers

[2] = biological target: T1, HIV-1 capsid protein (CA) hexamer; experiment: MicroScale Thermophoresis; 200 nM NT647-labeled CA-hexamers, Pep-2-cyclic titrated 1 nM to 2000 nM; fit to quadratic equation
[3] = biological target: T1, HIV-1 capsid protein (CA) hexamer; experiment: MicroScale Thermophoresis (MST), 200 nM NT647-labelled CA-hexamers, Pep-2-cyclic titrated 1 nM to 2000 nM [B panel A]

B1: Pep-2-cyclic: Cyc(SGVFTFGPVNFPG) (peptide)
peptide: SGVFTFGPVNFPG
modifications: head-to-tail cyclic: cyclized by coupling the C-terminal carboxylic acid and the N-terminal amino group
B1 was tested, and the “fold greater affinity than PF74” value [1] was roughly 7 fold, the Kd [2] was 32 nM and the “EC50 (read off the curve)” value [3] was roughly 70 nM.
